Source: publication PMC11910589
Where a chain is given by its changes, count along the chain named. Where two headings read alike, the source gives them in different places.

Key:
Assay in all cases: fluorescence polarization
dP75 PWWP [1] = target: T1, dP75 PWWP (Drosophila melanogaster, UniProt Q9VAA9 9-90)
T1 sequence: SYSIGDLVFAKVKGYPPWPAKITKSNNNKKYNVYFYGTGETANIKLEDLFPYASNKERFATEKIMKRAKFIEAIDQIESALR

dP75 PWWP [2] = target: T1, dP75 PWWP; remark: listed apart in the source
dP75 PWWP [3] = target: T1, dP75 PWWP; remark: listed apart in the source
dP75 PWWP [4] = target: T1, dP75 PWWP; remark: listed apart in the source
dP75 PWWP F43A = target: T2, dP75 PWWP F43A (Drosophila melanogaster, UniProt Q9VAA9 9-90, F43A)
T2 sequence: T1 sequence with F35A

dP75 PWWP K38A = target: T3, dP75 PWWP K38A (Drosophila melanogaster, UniProt Q9VAA9 9-90, K38A)
T3 sequence: T1 sequence with K30A

dP75 PWWP E48A = target: T4, dP75 PWWP E48A (Drosophila melanogaster, UniProt Q9VAA9 9-90, E48A)
T4 sequence: T1 sequence with E40A

dP75 PWWP Y23A = target: T5, dP75 PWWP Y23A (Drosophila melanogaster, UniProt Q9VAA9 9-90, Y23A)
T5 sequence: T1 sequence with Y15A

dP75 PWWP K53A = target: T6, dP75 PWWP K53A (Drosophila melanogaster, UniProt Q9VAA9 9-90, K53A)
T6 sequence: T1 sequence with K45A

LEDGF/p75 PWWP = LEDGF/p75 PWWP (Homo sapiens, UniProt O75475 4-89)
Sequence of LEDGF/p75 PWWP (O75475 4-89): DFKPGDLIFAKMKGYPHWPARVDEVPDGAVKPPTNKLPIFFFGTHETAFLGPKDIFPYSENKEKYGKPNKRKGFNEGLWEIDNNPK

B1: 20 bp random (dsDNA)
DNA 1: CGATCTGCGTCAGCTGTAGC
DNA 2: GCTACAGCTGACGCAGATCG
**Q.** Does B1 bind (dP75 PWWP [1])?
**A.** Result: no binding

**Q.** Does AAAAAAAAAAAA (ssDNA) [FAM-12A (polyA)] bind (dP75 PWWP [2])?
**A.** Result: no binding

B2: 12 bp poly(A:T) (dsDNA)
DNA 1: TTTTTTTTTTTT
DNA 2: AAAAAAAAAAAA
**Q.** Which Kd (dP75 PWWP [3]) does the source give for B2 here?
**A.** Its Kd is 18.2 ± 1.17 µM.

**Q.** Which Kd (dP75 PWWP [1]) does the source give for CCCCCCCCCCCC (ssDNA) [FAM-12C (polyC)] here?
**A.** The Kd was 151 ± 38.9 µM.

B3: 12 bp poly(G:C) (dsDNA)
DNA 1: GGGGGGGGGGGG
DNA 2: CCCCCCCCCCCC
**Q.** Does B3 bind (dP75 PWWP [1])?
**A.** Result: no binding

**Q.** Does GGGGGGGGGGGG (ssDNA) [FAM-12G (polyG)] bind (dP75 PWWP [4])?
**A.** Result: no binding

**Q.** What does the source list for TTTTTTTTTTTT (ssDNA) [FAM-12T (polyT)]?
**A.** Kd (dP75 PWWP [1]): 24.2 ± 1.1 µM; binding result (dP75 PWWP F43A): no binding; Kd (dP75 PWWP K38A): 60.9 ± 0.9 µM; Kd (dP75 PWWP E48A): 64.2 ± 2.8 µM; binding result (dP75 PWWP Y23A): no binding; Kd (dP75 PWWP K53A): 109 ± 2.9 µM; binding result (LEDGF/p75 PWWP): no binding
